The text below walks through data of patent EP1988165A1 (THE UNIVERSITY OF NORTH CAROLINA AT CHAPEL HILL, dated 2008).

Test [1] concerns the target T1, human ROC1 fused in-frame with the DNA activation domain of Gal4 (pGAD-ROC1) (yeast; human, UniProt P62877 1-108).
T1 construct: Yeast two-hybrid prey; also called regulator of cullins
Nature of the test: yeast two-hybrid; library screen with mouse cullin 4A as bait and FIG. 1A.

Test [2] concerns the target T2, ScAPC2 fused in-frame with the GAL4 activation domain (yeast; Saccharomyces cerevisiae, UniProt Q12440 1-853).
T2 construct: also called yeast APC2
T2 sequence (looked up): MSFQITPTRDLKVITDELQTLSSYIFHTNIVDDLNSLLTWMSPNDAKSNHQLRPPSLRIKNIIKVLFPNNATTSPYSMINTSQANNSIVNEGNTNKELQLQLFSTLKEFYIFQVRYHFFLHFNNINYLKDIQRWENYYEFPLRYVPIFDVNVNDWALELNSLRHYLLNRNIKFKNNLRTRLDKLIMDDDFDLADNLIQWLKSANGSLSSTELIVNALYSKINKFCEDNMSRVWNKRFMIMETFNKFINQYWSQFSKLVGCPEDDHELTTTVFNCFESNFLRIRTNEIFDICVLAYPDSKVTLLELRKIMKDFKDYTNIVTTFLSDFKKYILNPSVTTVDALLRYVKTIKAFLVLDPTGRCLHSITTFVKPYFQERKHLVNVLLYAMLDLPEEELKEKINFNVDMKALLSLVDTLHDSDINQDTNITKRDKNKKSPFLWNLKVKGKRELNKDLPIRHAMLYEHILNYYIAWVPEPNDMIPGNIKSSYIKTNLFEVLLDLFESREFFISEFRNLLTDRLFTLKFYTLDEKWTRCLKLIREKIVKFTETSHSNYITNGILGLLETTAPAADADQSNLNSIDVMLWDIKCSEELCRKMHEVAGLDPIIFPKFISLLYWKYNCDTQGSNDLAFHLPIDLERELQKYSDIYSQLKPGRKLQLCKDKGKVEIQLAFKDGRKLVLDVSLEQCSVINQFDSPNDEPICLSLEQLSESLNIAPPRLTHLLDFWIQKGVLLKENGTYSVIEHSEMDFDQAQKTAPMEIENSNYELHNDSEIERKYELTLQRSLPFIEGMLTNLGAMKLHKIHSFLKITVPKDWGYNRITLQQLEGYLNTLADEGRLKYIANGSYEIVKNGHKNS
Description: yeast two-hybrid (FIG. 5D).

The target of test [3] is T3, mouse APC2 fused to the Gal4 DNA binding domain (yeast; mouse, UniProt P04386 1-147; Q8BZQ7 15-837, limits assumed).
T3 construct: also called GAL4BD-APC2
Nature of the test: yeast two-hybrid, -LWH medium with 5 mM 3-AT (FIG. 4E).

The target in test [4] is T4, HA-epitope tagged human ROC1 (human, UniProt P62877 1-108).
T4 construct: Expressed by transfection in mammalian cells (Saos-2, HeLa, 293T); also called HA-ROC1
Description: co-immunoprecipitation with anti-HA from [35S]-methionine labeled transfected cells (FIG. 3A).

For test [5], the target named is T5, CDC53 fused in-frame with the Gal4 DNA binding domain (pGBT8-CDC53) (yeast; Saccharomyces cerevisiae, UniProt P04386 1-147; Q12018 1-815). Description: yeast two-hybrid, histidine reporter (FIG. 5D).
The target in test [6] is T6, CUL-C (ORF YJL047c) fused in-frame with the Gal4 DNA binding domain (pGBT8) (yeast; Saccharomyces cerevisiae, UniProt P04386 1-147; P47050 1-842). Nature of the test: yeast two-hybrid, histidine reporter (FIG. 5D).
Test [7] addresses T7, CUL-B (ORF YGR003w) fused in-frame with the Gal4 DNA binding domain (pGBT8) (yeast; Saccharomyces cerevisiae, UniProt P04386 1-147; P53202 1-744). Nature of the test: yeast two-hybrid, histidine reporter (FIG. 5D).
The target in test [8] is myc-epitope tagged APC2 (mouse, UniProt Q8BZQ7 15-837, limits assumed). Nature of the test: co-immunoprecipitation from transfected HeLa cells.
In test [9] the target is human ROC1, untagged (endogenous in HeLa and Saos-2 cells, or in vitro translated) (human, UniProt P62877 1-108). Description: immunopurification of ROC1 immunocomplexes from HeLa cells and protein microsequencing.
Test [10] concerns the target T5, CDC53 fused in-frame with the Gal4 DNA …. Description: yeast two-hybrid (FIG. 5D).
For test [11], the target named is T6, CUL-C (ORF YJL047c) fused in-frame with …. Description: yeast two-hybrid (FIG. 5D).
The target of test [12] is T7, CUL-B (ORF YGR003w) fused in-frame with …. Description: yeast two-hybrid (FIG. 5D).

Chain of myc-epitope tagged APC2 (Q8BZQ7 15-837 limits assumed): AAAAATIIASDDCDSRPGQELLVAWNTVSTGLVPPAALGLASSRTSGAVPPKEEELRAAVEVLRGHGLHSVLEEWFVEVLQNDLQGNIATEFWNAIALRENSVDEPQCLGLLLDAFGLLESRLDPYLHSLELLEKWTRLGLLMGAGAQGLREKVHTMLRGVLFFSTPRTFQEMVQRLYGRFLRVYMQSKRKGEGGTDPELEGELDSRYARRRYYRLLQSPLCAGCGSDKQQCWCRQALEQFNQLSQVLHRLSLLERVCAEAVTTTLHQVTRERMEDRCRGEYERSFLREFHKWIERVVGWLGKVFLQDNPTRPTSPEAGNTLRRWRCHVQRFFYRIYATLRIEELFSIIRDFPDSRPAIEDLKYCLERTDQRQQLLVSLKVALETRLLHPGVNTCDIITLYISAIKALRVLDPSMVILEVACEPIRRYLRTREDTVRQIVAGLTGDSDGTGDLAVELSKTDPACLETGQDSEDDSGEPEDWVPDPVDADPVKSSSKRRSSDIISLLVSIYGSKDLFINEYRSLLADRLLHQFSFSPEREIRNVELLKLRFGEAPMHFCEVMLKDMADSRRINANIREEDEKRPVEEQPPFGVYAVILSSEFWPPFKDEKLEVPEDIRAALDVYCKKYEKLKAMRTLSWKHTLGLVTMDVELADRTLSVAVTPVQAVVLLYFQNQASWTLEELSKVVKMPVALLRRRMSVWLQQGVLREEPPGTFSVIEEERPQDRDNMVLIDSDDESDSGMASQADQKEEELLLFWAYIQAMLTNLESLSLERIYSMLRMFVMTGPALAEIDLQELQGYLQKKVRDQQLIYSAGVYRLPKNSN
Chain of human ROC1, untagged (endogenous in HeLa and Saos-2 cells, or in vitro translated) (P62877 whole entry, the tested form may be a part): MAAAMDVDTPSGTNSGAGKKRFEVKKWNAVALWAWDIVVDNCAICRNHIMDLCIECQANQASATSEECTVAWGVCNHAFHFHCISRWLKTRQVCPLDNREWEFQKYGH
T1 sequence (P62877 whole entry, the tested form may be a part): as above
T4 sequence (P62877 whole entry): as the sequence (P62877 whole entry, the tested form may be a part) above

B1: full-length mouse cullin 4A fused in frame with the DNA-binding domain of Gal4 (other, yeast;mouse, UniProt P04386 1-147, looked up)
chain: MKLLSSIEQACDICRLKKLKCSKEKPKCAKCLKNNWECRYSPKTKRSPLTRAHLTEVESRLERLEQLFLLIFPREDLDMILKMDSLQDIKALLTGLFVQDNVNKDAVTDRLASVETDMPLTLRQHRISATSSSEESSNKGQRQLTVSMADEGPRKGSVSALMGRTNGLTKPAALAGGPAKPGGTGGSRKLVIKNFRDRPRLPDNYTQDTWRKLHEAVKAIQSSTSIRYNLEELYQAVENLCSHKVSPTLYKQLRQVCEDHVQAQILPFREDSLDSVLFLKKINTCWQDHCRQMIMIRSIFLFLDRTYVLQNSMLPSIWDMGLELFRNHIISDRMVQSKTIDGILLLIGRERSGEAVDRSLLRSLLSMLSDLQVYKDSFELKFLEETNCLYAAEGQRLMQDREVPEYLNHVSKRLEEEADRVITYLDHSTQKPLIACVEKQLLGEHLTAILQKGLEHLLDENRVPDLTQMYQLFSRVKGGQHALLQHWSEYIKTFGTTIVINPEKDKDMVQDLLDFKDKVDHVVEVCFQRNERFINLMKESFETFINKRPNKPAELIAKHVDSKLRAGNKEATDEELERILDKIMILFRFIHGKDVFEAFYKKDLAKRLLVGKSASVDAEKSMLSKLKHECGAAFTSKLEGMFKDMELSKDIMVHFKQHMQNQSAPGPIDLTVNILTMGYWPTYTPMEVHLPPEMVRLQEVFKTFYLGKHSGRKLQWQTTLGHAVLKADFKEGKKEFQVSLFQTLVLLMFNEGDGFSFEEIKMATGIEDSELRRTLQSLACGKARVLIKSPKGKEVEDGDKFIFNADFKHKLFRIKINQIQMKETVEEQVSTTERVFQDRQYQIDAAIVRIMKMRKTLGHNLLVSELYNQLKFPVKPGDLKKRIESLIDRDYMERDKDSPNQYHYVA
notes: Yeast two-hybrid bait, also used for the library screen; also called mouse CUL4A; CUL4A
With B1, the binding result in test [1] is on record as “binds”.

B2: ScROC1 fused in-frame with the Gal4 DNA binding domain (pGBT8-ScROC1) (other, yeast;Saccharomyces cerevisiae, UniProt P04386 1-147, looked up)
chain: MKLLSSIEQACDICRLKKLKCSKEKPKCAKCLKNNWECRYSPKTKRSPLTRAHLTEVESRLERLEQLFLLIFPREDLDMILKMDSLQDIKALLTGLFVQDNVNKDAVTDRLASVETDMPLTLRQHRISATSSSEESSNKGQRQLTVSMSNEVDRMDVDEDESQNIAQSSNQSAPVETKKKRFEIKKWTAVAFWSWDIAVDNCAICRNHIMEPCIECQPKAMTDTDNECVAAWGVCNHAFHLHCINKWIKTRDACPLDNQPWQLARCGR
Turning to B2, the binding result in test [2] is recorded as “binds”.

B3: full length human ROC2 fused in-frame with the yeast Gal4 DNA activation domain (other, not shown: large carriers)
chain: MFSLKKWNPVAMWSWDVECDTCAICRVQVMDACLRCQAENKQEDCVVVWGECNHSFHNCCMSLWVKQNNRCPLCQQDWVVQRIGK
notes: Yeast two-hybrid prey
As to B3, in test [3], the binding result is on record as “no binding”.

B4: myc-epitope tagged mouse CUL4A (other, UniProt Q3TCH7 1-759, looked up, not shown: small tags and cut ends)
chain: MADEGPRKGSVSALMGRTNGLTKPAALAGGPAKPGGTGGSRKLVIKNFRDRPRLPDNYTQDTWRKLHEAVKAIQSSTSIRYNLEELYQAVENLCSHKVSPTLYKQLRQVCEDHVQAQILPFREDSLDSVLFLKKINTCWQDHCRQMIMIRSIFLFLDRTYVLQNSMLPSIWDMGLELFRNHIISDRMVQSKTIDGILLLIGRERSGEAVDRSLLRSLLSMLSDLQVYKDSFELKFLEETNCLYAAEGQRLMQDREVPEYLNHVSKRLEEEADRVITYLDHSTQKPLIACVEKQLLGEHLTAILQKGLEHLLDENRVPDLTQMYQLFSRVKGGQHALLQHWSEYIKTFGTTIVINPEKDKDMVQDLLDFKDKVDHVVEVCFQRNERFINLMKESFETFINKRPNKPAELIAKHVDSKLRAGNKEATDEELERILDKIMILFRFIHGKDVFEAFYKKDLAKRLLVGKSASVDAEKSMLSKLKHECGAAFTSKLEGMFKDMELSKDIMVHFKQHMQNQSAPGPIDLTVNILTMGYWPTYTPMEVHLPPEMVRLQEVFKTFYLGKHSGRKLQWQTTLGHAVLKADFKEGKKEFQVSLFQTLVLLMFNEGDGFSFEEIKMATGIEDSELRRTLQSLACGKARVLIKSPKGKEVEDGDKFIFNADFKHKLFRIKINQIQMKETVEEQVSTTERVFQDRQYQIDAAIVRIMKMRKTLGHNLLVSELYNQLKFPVKPGDLKKRIESLIDRDYMERDKDSPNQYHYVA
notes: also called myc-mCUL4A; cullin 4A
For B4, the binding result in test [4] is listed as “binds”.

B5: ScAPC11 fused in-frame with the GAL4 activation domain (pGAD) (other, Saccharomyces cerevisiae, UniProt Q12157 1-165, looked up, not shown: large carriers)
chain: MKVKINEVHSVFAWSWHIPSTSDEDAANNDPIGNDEDEDVCGICRASYNGTCPSCKFPGDQCPLVIGLCHHNFHDHCIYRWLDTPTSKGLCPMCRQTFQLQKGLAINDAHVQKFVEIVSRRREEMIEEGVAEEFVDFDEPIRQNTDNPIGRQQVDTILDEDFLLR
notes: also called yeast APC11
On to B5, for which the binding result in [5] was “no binding”; in test [6], “binds”; in test [7] it was “no binding”.

B6: HA tagged human ROC2 (other, not shown: small tags and cut ends)
chain: ADVEDGEETCALASHSGSSGSTSGGDKMFSLKKWNPVAMWSWDVECDTCAICRVQVMDACLRCQAENKQEDCVVVWGECNHSFHNCCMSLWVKQNNRCPLCQQDWVVQRIGK
notes: Transfected protein migrates as a doublet; also called HA-ROC2
With B6, the binding result in test [8] is “no binding”.

B7: human CUL2, endogenous in HeLa cells (other, UniProt Q13617 1-745, looked up)
chain: MSLKPRVVDFDETWNKLLTTIKAVVMLEYVERATWNDRFSDIYALCVAYPEPLGERLYTETKIFLENHVRHLHKRVLESEEQVLVMYHRYWEEYSKGADYMDCLYRYLNTQFIKKNKLTEADLQYGYGGVDMNEPLMEIGELALDMWRKLMVEPLQAILIRMLLREIKNDRGGEDPNQKVIHGVINSFVHVEQYKKKFPLKFYQEIFESPFLTETGEYYKQEASNLLQESNCSQYMEKVLGRLKDEEIRCRKYLHPSSYTKVIHECQQRMVADHLQFLHAECHNIIRQEKKNDMANMYVLLRAVSTGLPHMIQELQNHIHDEGLRATSNLTQENMPTLFVESVLEVHGKFVQLINTVLNGDQHFMSALDKALTSVVNYREPKSVCKAPELLAKYCDNLLKKSAKGMTENEVEDRLTSFITVFKYIDDKDVFQKFYARMLAKRLIHGLSMSMDSEEAMINKLKQACGYEFTSKLHRMYTDMSVSADLNNKFNNFIKNQDTVIDLGISFQIYVLQAGAWPLTQAPSSTFAIPQELEKSVQMFELFYSQHFSGRKLTWLHYLCTGEVKMNYLGKPYVAMVTTYQMAVLLAFNNSETVSYKELQDSTQMNEKELTKTIKSLLDVKMINHDSEKEDIDAESSFSLNMNFSSKRTKFKITTSMQKDTPQEMEQTRSAVDEDRKMYLQAAIVRIMKARKVLRHNALIQEVISQSRARFNPSISMIKKCIEVLIDKQYIERSQASADEYSYVA
notes: also called cullin 2
Regarding B7, the binding result in test [9] was “binds”.

B8: ScROC1 fused in-frame with the GAL4 activation domain (pGAD-ScROC1) (other, Saccharomyces cerevisiae, UniProt Q08273 1-121, looked up, not shown: large carriers)
chain: MSNEVDRMDVDEDESQNIAQSSNQSAPVETKKKRFEIKKWTAVAFWSWDIAVDNCAICRNHIMEPCIECQPKAMTDTDNECVAAWGVCNHAFHLHCINKWIKTRDACPLDNQPWQLARCGR
notes: also called yeast ROC1; ROC1p
For the molecule B8, the binding result in test [10], in [11] and in test [12] was “binds” each time.
